Test system: peptide library, one residue held at a place counted from the Y acceptor
Assay: relative phosphorylation of the sub-library (ratio to the mean residue at this position); higher = residue favoured
Procedure, shortened: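 Every value reflects phosphorylation relative to the mean randomized residue. The sum of the 18 randomized residues, or 16 in the Ser/Thr-free library, served to normalize intensities at each position, which were then multiplied by that number. Intensities came from phosphorimaging with ImageQuant of biotinylated Tyr-centred peptides captured on streptavidin membranes after 90 min with purified recombinant kinases and 50 μM ATP plus γ-32P-ATP.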

Sequence of CSK, construct: Full length, human (P41240 whole entry, looked up): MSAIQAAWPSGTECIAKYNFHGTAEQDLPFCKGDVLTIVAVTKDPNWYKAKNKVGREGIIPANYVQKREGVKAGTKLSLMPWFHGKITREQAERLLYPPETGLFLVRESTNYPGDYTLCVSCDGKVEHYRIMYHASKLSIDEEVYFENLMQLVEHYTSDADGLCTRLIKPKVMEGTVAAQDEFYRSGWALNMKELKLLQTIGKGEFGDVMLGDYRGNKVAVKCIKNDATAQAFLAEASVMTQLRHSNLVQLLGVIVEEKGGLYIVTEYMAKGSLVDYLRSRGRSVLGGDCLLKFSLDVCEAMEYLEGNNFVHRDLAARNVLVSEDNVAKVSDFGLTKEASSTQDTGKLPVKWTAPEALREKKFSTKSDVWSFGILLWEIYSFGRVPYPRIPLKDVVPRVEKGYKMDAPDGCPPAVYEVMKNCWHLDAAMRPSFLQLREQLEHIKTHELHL
Sequence of DDR1, construct: aa444-end, human (Q08345 444-913, looked up): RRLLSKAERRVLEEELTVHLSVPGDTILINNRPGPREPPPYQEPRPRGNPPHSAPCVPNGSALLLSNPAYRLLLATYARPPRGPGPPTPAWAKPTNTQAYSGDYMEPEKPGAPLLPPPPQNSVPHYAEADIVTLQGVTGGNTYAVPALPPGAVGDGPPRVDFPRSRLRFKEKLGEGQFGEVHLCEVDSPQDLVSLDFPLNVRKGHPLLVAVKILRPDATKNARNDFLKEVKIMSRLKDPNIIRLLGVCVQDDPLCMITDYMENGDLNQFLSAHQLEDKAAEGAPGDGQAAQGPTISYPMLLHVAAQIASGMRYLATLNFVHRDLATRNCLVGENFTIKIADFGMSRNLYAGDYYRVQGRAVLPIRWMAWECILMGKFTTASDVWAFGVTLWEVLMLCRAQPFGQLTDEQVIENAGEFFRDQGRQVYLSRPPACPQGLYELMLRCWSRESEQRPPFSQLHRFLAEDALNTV
Sequence of ERBB4, construct: aa682-993, human (Q15303 682-993, looked up): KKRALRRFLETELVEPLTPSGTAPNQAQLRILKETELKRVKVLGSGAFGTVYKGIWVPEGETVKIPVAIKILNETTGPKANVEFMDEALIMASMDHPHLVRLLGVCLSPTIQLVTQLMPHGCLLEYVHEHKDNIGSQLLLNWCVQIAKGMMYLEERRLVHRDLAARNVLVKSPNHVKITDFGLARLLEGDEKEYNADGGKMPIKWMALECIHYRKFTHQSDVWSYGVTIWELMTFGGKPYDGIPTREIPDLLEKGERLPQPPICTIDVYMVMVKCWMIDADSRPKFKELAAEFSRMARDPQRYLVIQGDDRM

ERBB4, construct: aa682-993, human (from UniProt Q15303)
relative phosphorylation
Conditions	at +1	at +2	at +3	at +4	at +5	at -1	at -2	at -3	at -4	at -5
A fixed	1	0.674	0.487	0.87	1.07	0.611	1.41	0.86	1.34	1.06
D fixed	0.859	1.43	0.443	0.917	0.946	2.49	1.76	1.84	1.36	1.25
E fixed	1.87	2.03	0.446	1.07	0.98	2.43	2.11	2.33	1.62	1.1
F fixed	1.07	1.32	2.24	1.18	1.25	0.62	0.599	0.925	1.12	1.08
G fixed	0.413	0.375	0.427	1.13	1.14	0.519	1.04	0.941	1.09	0.998
H fixed	0.893	0.725	0.757	0.987	0.865	0.81	0.877	0.81	0.757	1
I fixed	1.93	1.14	2.4	0.846	0.858	1.96	0.757	0.647	0.789	0.823
K fixed	0.252	0.401	0.211	0.647	0.903	0.297	0.514	0.691	0.733	0.913
L fixed	1.03	0.97	1.97	0.758	1.01	1.21	0.826	0.859	0.931	0.936
M fixed	1.12	0.975	1.43	0.922	0.959	0.876	0.57	0.842	0.757	0.892
N fixed	0.453	0.909	0.439	0.635	0.757	1.24	1.08	1.37	0.863	1.16
P fixed	0.345	0.691	0.616	1.28	1.49	0.503	1.22	0.964	1.14	0.907
Q fixed	1.09	0.79	0.475	0.838	0.757	0.955	1.12	0.962	1.45	1.23
R fixed	0.318	0.58	0.328	0.769	0.864	0.333	0.508	0.602	0.65	0.897
S fixed	0.678	0.839	0.6	1.06	1.13	0.506	1.03	0.981	0.882	0.903
T fixed	1.1	1.05	0.563	0.87	1.02	1.01	0.872	0.924	0.537	0.79
V fixed	2.46	1.2	1.46	0.93	0.911	1.11	1.16	0.697	0.836	0.815
W fixed	1.11	1.9	2.71	2.28	1.09	0.522	0.541	0.759	1.13	1.25
pThr fixed	2.75	2.29	0.524	1.01	1.01	3.76	2.43	2.64	1.41	1.21
pTyr fixed	15.4	5.38	1.12	1.4	1.13	2.48	2.59	2.35	1.62	1.31

DDR1, construct: aa444-end, human (from UniProt Q08345)
relative phosphorylation
Conditions	at +1	at +2	at +3	at +4	at +5	at -1	at -2	at -3	at -4	at -5
A fixed	1.61	0.998	0.762	0.858	0.675	1.07	1.08	1.02	1.18	1.16
D fixed	0.629	0.815	0.717	0.883	0.561	1.35	0.723	0.719	0.772	0.767
E fixed	0.665	1.36	0.716	0.964	0.549	0.785	0.748	0.717	0.798	0.759
F fixed	1.62	1.04	1.38	2.72	3.66	1.13	0.804	1.18	1.16	1.38
G fixed	0.639	0.629	0.633	0.621	0.701	0.7	1.07	0.946	1.05	1.06
H fixed	1.07	0.986	1.16	1.19	1.03	1.14	1.24	1.45	1.13	1.13
I fixed	0.955	1.1	1.63	1.01	1.49	0.938	0.721	0.828	0.716	0.728
K fixed	0.817	0.809	0.736	0.743	0.623	0.81	1.44	1.35	1.4	1.34
L fixed	0.781	1.42	1.56	0.985	1.21	0.958	0.794	0.773	0.81	0.736
M fixed	0.972	1.26	1.58	0.982	1.08	0.825	0.79	0.82	0.949	0.816
N fixed	0.846	0.891	0.755	0.75	0.586	2.03	1.24	1.05	0.924	1.03
P fixed	0.677	0.738	0.619	0.752	1.05	0.971	1.18	0.871	1.05	1.02
Q fixed	0.916	0.888	0.74	0.806	0.598	0.934	1.05	0.96	1.09	1.02
R fixed	0.963	0.845	0.784	0.807	0.732	0.806	1.63	1.49	1.48	1.44
S fixed	0.974	0.796	0.602	0.56	0.617	0.92	1.11	0.975	0.835	0.896
T fixed	1.14	0.912	0.744	0.678	0.667	0.835	0.904	0.91	0.829	0.853
V fixed	1.72	1.29	1.46	1.25	1.02	0.917	0.73	0.786	0.798	0.823
W fixed	1	1.22	1.43	1.44	1.14	0.886	0.747	1.15	1.03	1.04
pThr fixed	0.793	1.37	0.799	1.1	0.686	0.743	0.653	0.678	0.726	0.775
pTyr fixed	1.03	2	0.914	1.43	0.653	0.867	0.713	0.849	0.908	0.953

CSK, construct: Full length, human (from UniProt P41240)
relative phosphorylation
Conditions	at +1	at +2	at +3	at +4	at +5	at -1	at -2	at -3	at -4	at -5
A fixed	1.41	0.875	0.728	0.981	1.32	0.815	1.34	0.852	1.16	1.05
D fixed	0.482	1.38	0.566	1.08	0.834	0.976	0.757	1.29	1.3	1.07
E fixed	0.852	1.46	0.505	1.36	0.948	1.78	0.958	2.98	1.99	1.16
F fixed	1.31	1.36	2.01	1.1	1.07	1.38	0.554	0.79	1.12	1.37
G fixed	0.515	0.485	0.648	1.17	1.14	0.362	1.07	0.915	1.23	1.15
H fixed	1.03	0.914	0.901	1.22	1.13	1.2	0.684	0.839	0.869	0.994
I fixed	1.71	1.07	2.04	0.759	0.869	2.44	1.14	0.774	0.913	1.05
K fixed	0.4	0.606	0.389	0.815	0.684	0.472	0.659	0.867	0.812	0.748
L fixed	1.13	1.08	1.07	0.746	1.02	1.24	0.761	0.763	0.86	1.07
M fixed	1.1	0.839	1.01	1.06	0.937	0.9	0.558	0.832	0.866	1.01
N fixed	0.362	1.06	0.509	0.875	0.974	0.679	0.765	0.901	0.705	0.845
P fixed	0.23	0.59	1.02	1.08	1.39	0.395	2.04	0.944	1.03	1.01
Q fixed	0.988	0.791	0.607	0.992	0.954	0.691	0.952	0.772	1.07	0.839
R fixed	0.524	0.757	0.46	0.859	0.717	0.409	0.738	0.976	0.758	0.735
S fixed	0.787	0.978	0.734	0.868	1.14	0.533	1.47	0.958	0.826	0.943
T fixed	0.803	0.829	0.689	0.879	1.07	0.926	1.16	0.918	0.715	0.897
V fixed	1.67	1.03	1.6	0.831	0.769	1.65	1.81	0.769	0.778	0.831
W fixed	2.7	1.9	2.52	1.34	1.03	1.16	0.576	0.859	1.01	1.22
pThr fixed	1.23	1.87	0.582	1.12	0.922	1.02	0.787	1.35	1.03	1.02
pTyr fixed	3.21	7.03	1.05	1.36	1.64	4.72	1.71	2.14	2.83	1.74

— the supplement of paper PMC11136658
